From US20250263697, “COMPOSITIONS AND METHODS OF MODULATING RNA AND PROTEIN INTERACTIONS” (The Regents of the University of California, published 2025)

Target: NSP12 (RNA-dependent RNA polymerase) (SARS-CoV-2, UniProt P0DTD1 P0DTD1:4393-5324)
Assay: FP

B1: Scov2_7431_7555_RNA (ssRNA)
RNA: GGGCGAAAACGCCCCAUUUUAUUAUGUAUGGAAAAGUUAUGUGCAUGUUGUAGACGGUUGUAAUUCAUCAACUUGUAUGAUGUGUUACAAACGUAAUAGAGCAACAAGAGUCGAAUGUACAACUAUUGUUAAUGGUGUU
  Kd: 17 nM
